Substitutions are numbered along the chain they refer to. Values joined by “and” are separate entries in the source; they are usually repeats but may differ in a detail not shown here. Equal entries are not always repeated. Blank lines part the entries; values can stand above or below the binder they belong to.
Assays:
Assay in all cases: SPR; biotinylated ADO or ADO mutant immobilised on a Biotin CAP chip (~2500-3000 RU), substrate peptide injected; Biacore T200, 4 °C; 20 mM HEPES pH 7.5, 500 mM NaCl, 10 mM DTT, 0.1% tween-20; 50 µL/minute; multi-cycle or single-cycle mode not given; each cell is one of three independent measurements
Details in all cases: both partners purified
[1] = biological target: T1, ADO-D206E, N-terminally His-tagged and biotinylated (human, UniProt Q96SZ5 1-270, D206E, biotin (biotinylated during expression))
T1 construct: 2-aminoethanethiol dioxygenase (ADO), human, UniProt Q96SZ5, full length, site-directed mutant; source: E. coli Rosetta2(DE3), purified (Ni-NTA, SEC); not shown: biotinylation tag (from the vector pQE80L-Navi), N-terminal, kept
T1 sequence (looked up): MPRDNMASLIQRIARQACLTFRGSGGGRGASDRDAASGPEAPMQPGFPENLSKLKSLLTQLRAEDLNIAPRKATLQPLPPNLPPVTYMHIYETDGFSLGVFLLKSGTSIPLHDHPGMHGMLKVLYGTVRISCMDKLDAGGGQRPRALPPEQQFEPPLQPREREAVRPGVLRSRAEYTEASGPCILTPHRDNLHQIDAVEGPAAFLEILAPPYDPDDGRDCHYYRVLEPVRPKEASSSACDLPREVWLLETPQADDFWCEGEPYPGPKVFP

[2] = biological target: T2, ADO-Y212A, N-terminally His-tagged and biotinylated (human, UniProt Q96SZ5 1-270, Y212A, biotin (biotinylated during expression))
T2 construct: 2-aminoethanethiol dioxygenase (ADO), human, UniProt Q96SZ5, full length, site-directed mutant; source: E. coli Rosetta2(DE3), purified (Ni-NTA, SEC); not shown: biotinylation tag (from the vector pQE80L-Navi), N-terminal, kept
T2 sequence (looked up): T1 sequence (looked up) with E206D, Y212A

[3] = biological target: T3, ADO-Y212F, N-terminally His-tagged and biotinylated (human, UniProt Q96SZ5 1-270, Y212F, biotin (biotinylated during expression))
T3 construct: 2-aminoethanethiol dioxygenase (ADO), human, UniProt Q96SZ5, full length, site-directed mutant; source: E. coli Rosetta2(DE3), purified (Ni-NTA, SEC); not shown: biotinylation tag (from the vector pQE80L-Navi), N-terminal, kept
T3 sequence (looked up): T1 sequence (looked up) with E206D, Y212F

[4] = biological target: T4, ADO-Y222A, N-terminally His-tagged and biotinylated (human, UniProt Q96SZ5 1-270, Y222A, biotin (biotinylated during expression))
T4 construct: 2-aminoethanethiol dioxygenase (ADO), human, UniProt Q96SZ5, full length, site-directed mutant; source: E. coli Rosetta2(DE3), purified (Ni-NTA, SEC); not shown: biotinylation tag (from the vector pQE80L-Navi), N-terminal, kept
T4 sequence (looked up): T1 sequence (looked up) with E206D, Y222A

[5] = biological target: T5, ADO-F256A, N-terminally His-tagged and biotinylated (human, UniProt Q96SZ5 1-270, F256A, biotin (biotinylated during expression))
T5 construct: 2-aminoethanethiol dioxygenase (ADO), human, UniProt Q96SZ5, full length, site-directed mutant; source: E. coli Rosetta2(DE3), purified (Ni-NTA, SEC); not shown: biotinylation tag (from the vector pQE80L-Navi), N-terminal, kept
T5 sequence (looked up): T1 sequence (looked up) with E206D, F256A

[6] = biological target: T4, ADO-Y222A, N-terminally His-tagged and …; remark: listed apart in the source

- Kd [1]: 1.21 µM and 1.27 µM and 1.44 µM
- Kd [2]: 34 µM and 24.7 µM
- Kd [3]: 8.76 µM and 9.12 µM and 9.82 µM
- Kd [4]: 0.921 µM and 1.04 µM and 1.1 µM
- Kd [5]: 0.751 µM and 0.9 µM and 0.973 µM
B1: IL32(2-15), synthetic peptide corresponding to the methionine excised N-terminus of IL32, residues 2-15 (peptide, UniProt P24001 2-15, looked up)
peptide: CFPKVLSDDMKKLK
notes: interleukin 32 (IL32), residues 2-15 (N-terminal Cys exposed); also called 14-mer IL32; source: synthetic peptide

- Kd [6]: 4.42 µM and 4.8 µM and 4.78 µM
B2: RGS5(2-15), synthetic peptide corresponding to the methionine excised N-terminus of RGS5, residues 2 to 15 (peptide, UniProt O15539 2-15, looked up)
peptide: CKGLAALPHSCLER
notes: regulator of G-protein signalling 5 (RGS5), residues 2 to 15 (N-terminal Cys exposed); UniProt O15539 is printed for the full-length human protein; also called 14-mer RGS5; source: synthetic peptide
